The test has as its target Human γD-crystallin V75D (human).

Human γD-crystallin V75D (human), sequence (P07320 2-174 V76D): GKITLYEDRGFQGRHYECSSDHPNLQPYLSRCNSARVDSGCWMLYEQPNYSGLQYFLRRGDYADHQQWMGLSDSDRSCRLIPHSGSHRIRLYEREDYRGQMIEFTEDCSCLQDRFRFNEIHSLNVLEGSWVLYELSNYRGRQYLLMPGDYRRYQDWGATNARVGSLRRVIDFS

B1: αB-crystallin, wild type (natural protein)
chain: MDIAIHHPWIRRPFFPFHSPSRLFDQFFGEHLLESDLFPTSTSLSPFYLRPPSFLRAPSWFDTGLSEMRLEKDRFSVNLDVKHFSPEELKVKVLGDVIEVHGKHEERQDEHGFISREFHRKYRIPADVDPLTITSSLSSDGVLTVNGPRKQVSGPERTIPITREEKPAVTAAPKK
For B1, the suppression of aggregation on dilution out of 5 M GdnHCl (from maximum A350), αB in 5-fold molar excess is 73%.
